Target: envelope glycoprotein derived from T-tropic HIV-1 (gp120, gp41) (HIV-1 (T-tropic))
Assay: cell-based or functional assay

**Q.** For “His-tagged actinohivin dimer fusion protein (from UniProt Q9KWN0 47-160)”, which concentration that inhibit 50% of syncytium formation (IC50) is on record?
**A.** 0.235

**Q.** Which concentration that inhibit 50% of syncytium formation (IC50) does the source give for “His-tagged actinohivin monomer fusion protein (from UniProt Q9KWN0 47-160)” here?
**A.** 0.58

Source: patent publication US20080254507A1
